Reference: US20110104163A1 (US Dept. of Health and Human Services, published 2011)

Assays:
[1] = target: T1, single-chain fusion protein gp120Bal-CD4 (HIV-1 isolate Bal, UniProt P01730 26-208); assay: ELISA, serially diluted m36 on coated antigen, anti-FLAG detection
T1 construct: Gift from T. Fouts; Coated on ELISA plates; also called gp120-CD4; Bal gp120-CD4; not shown: junction or linker between gp120 and CD4 not described (gift, Fouts et al. 2000)

bovine serum albumin = target: T2, bovine serum albumin (bovine, UniProt P02769 25-607); assay: ELISA, plate coated with 1 µg/ml antigen, m36 detected with HRP anti-FLAG
T2 construct: also called BSA
T2 sequence (P02769 25-607 limits assumed): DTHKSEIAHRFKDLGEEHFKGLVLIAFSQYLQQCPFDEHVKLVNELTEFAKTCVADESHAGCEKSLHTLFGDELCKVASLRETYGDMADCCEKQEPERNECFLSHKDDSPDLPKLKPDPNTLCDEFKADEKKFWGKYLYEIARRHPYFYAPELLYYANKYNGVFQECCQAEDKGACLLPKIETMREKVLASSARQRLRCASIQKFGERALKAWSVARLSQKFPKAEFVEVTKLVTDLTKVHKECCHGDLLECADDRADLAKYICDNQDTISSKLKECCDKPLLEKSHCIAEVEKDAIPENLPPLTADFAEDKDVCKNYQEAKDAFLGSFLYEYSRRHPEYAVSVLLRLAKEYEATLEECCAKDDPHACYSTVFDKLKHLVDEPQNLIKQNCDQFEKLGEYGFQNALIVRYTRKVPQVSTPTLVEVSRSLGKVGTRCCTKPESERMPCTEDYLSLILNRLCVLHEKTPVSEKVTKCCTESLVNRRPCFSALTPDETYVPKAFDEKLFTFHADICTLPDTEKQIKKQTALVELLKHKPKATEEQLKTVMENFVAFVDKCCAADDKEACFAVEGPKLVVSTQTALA

soluble CD4 = target: T3, soluble CD4 (UniProt P01730 26-396, limits assumed); assay: as above
T3 construct: also called sCD4

[2] = target: T1, single-chain fusion protein gp120Bal-CD4; assay: ELISA, soluble VH on coated gp120-CD4

B1: m36 (VHH)
VHH: QVQLVQSGGGLVQPGGSLRLSCAASAFDFSDYEMSWVRQAPGKGLEWIGEINDSGNTIYNPSLKSRVTISRDNSKNTLYLQMNTLRAEDTAIYYCAIYGGNSGGEYWGQGTLVTVSS
notes: Human VH domain antibody, monomeric, made in E. coli with His and FLAG tags; also called b5; dAb m36
[1]
  EC50: ~2.5 nM
Bovine serum albumin
  binding result: no binding (tested: 10 µg/ml)
Soluble CD4
  binding result: no binding (tested: 10 µg/ml)
[2]
  EC50: 0.04 µg/mL
